Source: patent US20260242735A1 (UNIVERSIT T BASEL, published 2026)

B1: Refmab #1 (antibody, V domains shown)
VH: EVQLVQSGAEVKKPGSSVKVSCKASGYTITDSNIHWVRQAPGQSLEWIGYIYPYNGGTDYNQKFKNRATLTVDNPTNTAYMELSSLRSEDTAFYYCVNGNPWLAYWGQGTLVTVSS
VL: DIQLTQSPSTLSASVGDRVTITCRASESLDNYGIRFLTWFQQKPGKAPKLLMYAASNQGSGVPSRFSGSGSGTEFTLTISSLQPDDFATYYCQQTKEVPWSFGQGTKVEVK
notes: The alanine scan used IgG or Fab; also called hP67.6
B2: Refmab #3 (antibody, V domains shown)
VH: QVQLVQSGAEVKKPGSSVKVSCKASGYTFTDYNMHWVRQAPGQGLEWIGYIYPYNGGTGYNQKFKSKATITADESTNTAYMELSSLRSEDTAVYYCARGRPAMDYWGQGTLVTVSS
VL: DIQMTQSPSSLSASVGDRVTITCRASESVDNYGISFMNWFQQKPGKAPKLLIYAASNQGSGVPSRFSGSGSGTDFTLTISSLQPDDFATYYCQQSKEVPWTFGQGTKVEIK
notes: The alanine scan used IgG or Fab
B3: Refmab #2 (antibody, V domains shown)
VH: QVQLVQSGAEVKKPGSSVKVSCKASGGTFSDYAISWVRQAPGQGLEWMGRIIPILGVADYAQKFQGRVTITADKSTRTAYMELSSLRSEDTAVYYCARNWADAFDIWGQGTMVTVSS
VL: DIQLTQSPSSLSASVGDRVTITCRASQGISSVLAWYQQKPGKAPKLLIYDASSLESGVPSRFSGSGSGTDFTLTISSLQPEDFATYYCQQFDSSITFGQGTKLEIK
notes: as for B2
B4: Refmab #1 (antibody, human IgG1, V domains shown)
VH: B1 VH
VL: B1 VL
notes: Tested in IgG format; human IgG1 (Absolute Antibody hP67.6, Cat. No. Ab00283-10.0); also called hP67.6
B5: Refmab #3 (antibody, human IgG1, V domains shown)
VH: B2 VH
VL: B2 VL
notes: Tested in IgG format; human IgG1 Fc silent (PG-LALA)
B6: Refmab #2 (antibody, human IgG1, V domains shown)
VH: B3 VH
VL: B3 VL
notes: as for B5
B7: Refmab #4 (antibody, human IgG1, V domains shown)
VH: QVQLVQSGAEVKKPGESVKVSCKASGYTFTNYGMNWVKQAPGQGLEWMGWINTYTGEPTYADKFQGRVTMTTDTSTSTAYMEIRNLGGDDTAVYYCARWSWSDGYYVYFDYWGQGTSVTVSS
VL: DIVMTQSPDSLTVSLGERTTINCKSSQSVLDSSTNKNSLAWYQQKPGQPPKLLLSWASTRESGIPDRFSGSGSGTDFTLTIDSPQPEDSATYYCQQSAHFPITFGQGTRLEIK
notes: as for B5

target: human CD33 S124A (human, UniProt P20138 18-364); assay: flow cytometry on HEK293-T, alanine scan
Sequence (P20138 18-364 S124A limits assumed): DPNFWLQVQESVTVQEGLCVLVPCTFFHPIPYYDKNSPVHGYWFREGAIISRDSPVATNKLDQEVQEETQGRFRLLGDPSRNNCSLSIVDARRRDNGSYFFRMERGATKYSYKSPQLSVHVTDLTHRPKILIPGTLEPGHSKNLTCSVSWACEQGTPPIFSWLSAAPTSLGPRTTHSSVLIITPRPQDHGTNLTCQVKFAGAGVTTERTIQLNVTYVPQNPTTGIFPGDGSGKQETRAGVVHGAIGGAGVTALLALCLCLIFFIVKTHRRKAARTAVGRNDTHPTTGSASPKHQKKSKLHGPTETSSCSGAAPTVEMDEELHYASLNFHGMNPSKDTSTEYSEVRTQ
Experimental: (§1) An alanine scan on human CD33 was performed to the determine the residues on CD33 that are involved in binding to the antibodies investigated. […] Briefly, a mutation library of CD33 was created by high-throughput, site-directed mutagenesis. Each residue was individually mutated to alanine, with alanine codons mutated to serine. The mutant library was arrayed in 384-well microplates and transiently transfected into HEK293-T. Following transfection, cells were incubated with the indicated antibodies (IgG or Fab) at concentrations pre-determined using an independent immunofluorescence titration curve on wild type CD33. […] Binding of each antibody to each mutant clone was determined in duplicates. For each point, background fluorescence was subtracted from the raw data, which were then normalized to antibody reactivity with wild type CD33.
(§2) Critical residues for antibody binding (outlined in dark grey) were residues whose mutations led to a binding of the test Abs of less than 20%. Additional secondary residues (outlined in light grey) were identified that led to a binding of the test Abs of between 20 and 40% as compared to the wild type CD33.

Row | Binder | Mean % WT Binding [% WT binding]
1 | B1 | 87.5
2 | B2 | 274
3 | B3 | 111

target: human CD33 W167A (human, UniProt P20138 18-364); assay: flow cytometry on HEK293-T, alanine scan
Sequence (P20138 18-364 W167A limits assumed): as the sequence (P20138 18-364 S124A limits assumed) above, with A107S, W150A counted along it
Experimental: as §1, §2

Row | Binder | Mean % WT Binding [% WT binding]
4 | B1 | 89.4
5 | B2 | 129
6 | B3 | 109

target: human CD33 E121A (human, UniProt P20138 18-364); assay: flow cytometry on HEK293-T, alanine scan
Sequence (P20138 18-364 E121A limits assumed): as the sequence (P20138 18-364 S124A limits assumed) above, with E104A, A107S counted along it
Experimental: as §1, §2

Row | Binder | Mean % WT Binding [% WT binding]
7 | B1 | 87.7
8 | B2 | 132
9 | B3 | 109

target: human CD33 L161A (human, UniProt P20138 18-364); assay: flow cytometry on HEK293-T, alanine scan
Sequence (P20138 18-364 L161A limits assumed): as the sequence (P20138 18-364 S124A limits assumed) above, with A107S, L144A counted along it
Experimental: as §1, §2

Row | Binder | Mean % WT Binding [% WT binding]
10 | B1 | 87
11 | B2 | 116
12 | B3 | 114

target: human CD33 V136A (human, UniProt P20138 18-364); assay: flow cytometry on HEK293-T, alanine scan
Sequence (P20138 18-364 V136A limits assumed): as the sequence (P20138 18-364 S124A limits assumed) above, with A107S, V119A counted along it
Experimental: as §1, §2

Row | Binder | Mean % WT Binding [% WT binding]
13 | B1 | 64.2
14 | B2 | 106
15 | B3 | 99.8

target: human CD33 F118A (human, UniProt P20138 18-364); assay: flow cytometry on HEK293-T, alanine scan
Sequence (P20138 18-364 F118A limits assumed): as the sequence (P20138 18-364 S124A limits assumed) above, with F101A, A107S counted along it
Experimental: as §1, §2

Row | Binder | Mean % WT Binding [% WT binding]
16 | B1 | 0.1
17 | B2 | 8.2
18 | B3 | 0.6

target: human CD33 Y127A (human, UniProt P20138 18-364); assay: flow cytometry on HEK293-T, alanine scan
Sequence (P20138 18-364 Y127A limits assumed): as the sequence (P20138 18-364 S124A limits assumed) above, with A107S, Y110A counted along it
Experimental: as §1, §2

Row | Binder | Mean % WT Binding [% WT binding]
19 | B1 | 92.6
20 | B2 | 31.9
21 | B3 | 146

target: human CD33 G156A (human, UniProt P20138 18-364); assay: flow cytometry on HEK293-T, alanine scan
Sequence (P20138 18-364 G156A limits assumed): as the sequence (P20138 18-364 S124A limits assumed) above, with A107S, G139A counted along it
Experimental: as §1, §2

Row | Binder | Mean % WT Binding [% WT binding]
22 | B1 | 83.4
23 | B2 | 116
24 | B3 | 99.4

target: human CD33 R119A (human, UniProt P20138 18-364); assay: flow cytometry on HEK293-T, alanine scan
Sequence (P20138 18-364 R119A limits assumed): as the sequence (P20138 18-364 S124A limits assumed) above, with R102A, A107S counted along it
Experimental: as §1, §2

Row | Binder | Mean % WT Binding [% WT binding]
25 | B1 | 109
26 | B2 | 1020
27 | B3 | 130

target: human CD33 E154A (human, UniProt P20138 18-364); assay: flow cytometry on HEK293-T, alanine scan
Sequence (P20138 18-364 E154A limits assumed): as the sequence (P20138 18-364 S124A limits assumed) above, with A107S, E137A counted along it
Experimental: as §1, §2

Row | Binder | Mean % WT Binding [% WT binding]
28 | B1 | 88
29 | B2 | 126
30 | B3 | 112

target: human CD33 K130A (human, UniProt P20138 18-364); assay: flow cytometry on HEK293-T, alanine scan
Sequence (P20138 18-364 K130A limits assumed): as the sequence (P20138 18-364 S124A limits assumed) above, with A107S, K113A counted along it
Experimental: as §1, §2

Row | Binder | Mean % WT Binding [% WT binding]
31 | B1 | 106
32 | B2 | 152
33 | B3 | 123

target: human CD33 S128A (human, UniProt P20138 18-364); assay: flow cytometry on HEK293-T, alanine scan
Sequence (P20138 18-364 S128A limits assumed): as the sequence (P20138 18-364 S124A limits assumed) above, with A107S, S111A counted along it
Experimental: as §1, §2

Row | Binder | Mean % WT Binding [% WT binding]
34 | B1 | 118
35 | B2 | 446
36 | B3 | 140

target: human CD33 S115A (human, UniProt P20138 18-364); assay: flow cytometry on HEK293-T, alanine scan
Sequence (P20138 18-364 S115A limits assumed): as the sequence (P20138 18-364 S124A limits assumed) above, with S98A, A107S counted along it
Experimental: as §1, §2

Row | Binder | Mean % WT Binding [% WT binding]
37 | B1 | 86.9
38 | B2 | 77.2
39 | B3 | 93.2

target: human CD33 S166A (human, UniProt P20138 18-364); assay: flow cytometry on HEK293-T, alanine scan
Sequence (P20138 18-364 S166A limits assumed): as the sequence (P20138 18-364 S124A limits assumed) above, with A107S, S149A counted along it
Experimental: as §1, §2

Row | Binder | Mean % WT Binding [% WT binding]
40 | B1 | 98.3
41 | B2 | 131
42 | B3 | 114

target: human CD33 R98A (human, UniProt P20138 18-364); assay: flow cytometry on HEK293-T, alanine scan
Sequence (P20138 18-364 R98A limits assumed): as the sequence (P20138 18-364 S124A limits assumed) above, with R81A, A107S counted along it
Experimental: as §1, §2

Row | Binder | Mean % WT Binding [% WT binding]
43 | B1 | 99.1
44 | B2 | 102
45 | B3 | 122

target: human CD33 P155A (human, UniProt P20138 18-364); assay: flow cytometry on HEK293-T, alanine scan
Sequence (P20138 18-364 P155A limits assumed): as the sequence (P20138 18-364 S124A limits assumed) above, with A107S, P138A counted along it
Experimental: as §1, §2

Row | Binder | Mean % WT Binding [% WT binding]
46 | B1 | 84.4
47 | B2 | 114
48 | B3 | 126

target: human CD33 T152A (human, UniProt P20138 18-364); assay: flow cytometry on HEK293-T, alanine scan
Sequence (P20138 18-364 T152A limits assumed): as the sequence (P20138 18-364 S124A limits assumed) above, with A107S, T135A counted along it
Experimental: as §1, §2

Row | Binder | Mean % WT Binding [% WT binding]
49 | B1 | 86.3
50 | B2 | 155
51 | B3 | 117

target: human CD33 N99A (human, UniProt P20138 18-364); assay: flow cytometry on HEK293-T, alanine scan
Sequence (P20138 18-364 N99A limits assumed): as the sequence (P20138 18-364 S124A limits assumed) above, with N82A, A107S counted along it
Experimental: as §1, §2

Row | Binder | Mean % WT Binding [% WT binding]
52 | B1 | 80.2
53 | B2 | 98.6
54 | B3 | 56.8

target: human CD33 D112A (human, UniProt P20138 18-364); assay: flow cytometry on HEK293-T, alanine scan
Sequence (P20138 18-364 D112A limits assumed): as the sequence (P20138 18-364 S124A limits assumed) above, with D95A, A107S counted along it
Experimental: as §1, §2

Row | Binder | Mean % WT Binding [% WT binding]
55 | B1 | 51.8
56 | B2 | 77.5
57 | B3 | 58.7

target: human CD33 T125A (human, UniProt P20138 18-364); assay: flow cytometry on HEK293-T, alanine scan
Sequence (P20138 18-364 T125A limits assumed): as the sequence (P20138 18-364 S124A limits assumed) above, with A107S, T108A counted along it
Experimental: as §1, §2

Row | Binder | Mean % WT Binding [% WT binding]
58 | B1 | 92.4
59 | B2 | 932
60 | B3 | 107

target: human CD33 I147A (human, UniProt P20138 18-364); assay: flow cytometry on HEK293-T, alanine scan
Sequence (P20138 18-364 I147A limits assumed): as the sequence (P20138 18-364 S124A limits assumed) above, with A107S, I130A counted along it
Experimental: as §1, §2

Row | Binder | Mean % WT Binding [% WT binding]
61 | B1 | 71.6
62 | B2 | 67.1
63 | B3 | 92.2

target: human CD33 R109A (human, UniProt P20138 18-364); assay: flow cytometry on HEK293-T, alanine scan
Sequence (P20138 18-364 R109A limits assumed): as the sequence (P20138 18-364 S124A limits assumed) above, with R92A, A107S counted along it
Experimental: as §1, §2

Row | Binder | Mean % WT Binding [% WT binding]
64 | B1 | 101
65 | B2 | 112
66 | B3 | 104

target: human CD33 N100A (human, UniProt P20138 18-364); assay: flow cytometry on HEK293-T, alanine scan
Sequence (P20138 18-364 N100A limits assumed): as the sequence (P20138 18-364 S124A limits assumed) above, with N83A, A107S counted along it
Experimental: as §1, §2

Row | Binder | Mean % WT Binding [% WT binding]
67 | B1 | 94.8
68 | B2 | 107
69 | B3 | 97

target: human CD33 P132A (human, UniProt P20138 18-364); assay: flow cytometry on HEK293-T, alanine scan
Sequence (P20138 18-364 P132A limits assumed): as the sequence (P20138 18-364 S124A limits assumed) above, with A107S, P115A counted along it
Experimental: as §1, §2

Row | Binder | Mean % WT Binding [% WT binding]
70 | B1 | 107
71 | B2 | 74.5
72 | B3 | 102

target: human CD33 S97A (human, UniProt P20138 18-364); assay: flow cytometry on HEK293-T, alanine scan
Sequence (P20138 18-364 S97A limits assumed): as the sequence (P20138 18-364 S124A limits assumed) above, with S80A, A107S counted along it
Experimental: as §1, §2

Row | Binder | Mean % WT Binding [% WT binding]
73 | B1 | 92.5
74 | B2 | 90.4
75 | B3 | 132

target: human CD33 L93A (human, UniProt P20138 18-364); assay: flow cytometry on HEK293-T, alanine scan
Sequence (P20138 18-364 L93A limits assumed): as the sequence (P20138 18-364 S124A limits assumed) above, with L76A, A107S counted along it
Experimental: as §1, §2

Row | Binder | Mean % WT Binding [% WT binding]
76 | B1 | 88.6
77 | B2 | 120
78 | B3 | 103

target: human CD33 P96A (human, UniProt P20138 18-364); assay: flow cytometry on HEK293-T, alanine scan
Sequence (P20138 18-364 P96A limits assumed): as the sequence (P20138 18-364 S124A limits assumed) above, with P79A, A107S counted along it
Experimental: as §1, §2

Row | Binder | Mean % WT Binding [% WT binding]
79 | B1 | 84.9
80 | B2 | 140
81 | B3 | 102

target: human CD33 S102A (human, UniProt P20138 18-364); assay: flow cytometry on HEK293-T, alanine scan
Sequence (P20138 18-364 S102A limits assumed): as the sequence (P20138 18-364 S124A limits assumed) above, with S85A, A107S counted along it
Experimental: as §1, §2

Row | Binder | Mean % WT Binding [% WT binding]
82 | B1 | 85.8
83 | B2 | 75.9
84 | B3 | 89.6

target: human CD33 V106A (human, UniProt P20138 18-364); assay: flow cytometry on HEK293-T, alanine scan
Sequence (P20138 18-364 V106A limits assumed): as the sequence (P20138 18-364 S124A limits assumed) above, with V89A, A107S counted along it
Experimental: as §1, §2

Row | Binder | Mean % WT Binding [% WT binding]
85 | B1 | 88.5
86 | B2 | 85.7
87 | B3 | 112

target: human CD33 S158A (human, UniProt P20138 18-364); assay: flow cytometry on HEK293-T, alanine scan
Sequence (P20138 18-364 S158A limits assumed): as the sequence (P20138 18-364 S124A limits assumed) above, with A107S, S141A counted along it
Experimental: as §1, §2

Row | Binder | Mean % WT Binding [% WT binding]
88 | B1 | 87.1
89 | B2 | 111
90 | B3 | 111

target: human CD33 K146A (human, UniProt P20138 18-364); assay: flow cytometry on HEK293-T, alanine scan
Sequence (P20138 18-364 K146A limits assumed): as the sequence (P20138 18-364 S124A limits assumed) above, with A107S, K129A counted along it
Experimental: as §1, §2

Row | Binder | Mean % WT Binding [% WT binding]
91 | B1 | 78.5
92 | B2 | 118
93 | B3 | 115

target: human CD33 R111A (human, UniProt P20138 18-364); assay: flow cytometry on HEK293-T, alanine scan
Sequence (P20138 18-364 R111A limits assumed): as the sequence (P20138 18-364 S124A limits assumed) above, with R94A, A107S counted along it
Experimental: as §1, §2

Row | Binder | Mean % WT Binding [% WT binding]
94 | B1 | 100
95 | B2 | 93.4
96 | B3 | 108

target: human CD33 L148A (human, UniProt P20138 18-364); assay: flow cytometry on HEK293-T, alanine scan
Sequence (P20138 18-364 L148A limits assumed): as the sequence (P20138 18-364 S124A limits assumed) above, with A107S, L131A counted along it
Experimental: as §1, §2

Row | Binder | Mean % WT Binding [% WT binding]
97 | B1 | 83.1
98 | B2 | 108
99 | B3 | 119

target: human CD33 I149A (human, UniProt P20138 18-364); assay: flow cytometry on HEK293-T, alanine scan
Sequence (P20138 18-364 I149A limits assumed): as the sequence (P20138 18-364 S124A limits assumed) above, with A107S, I132A counted along it
Experimental: as §1, §2

Row | Binder | Mean % WT Binding [% WT binding]
100 | B1 | 87.5
101 | B2 | 101
102 | B3 | 116

target: human CD33 K126A (human, UniProt P20138 18-364); assay: flow cytometry on HEK293-T, alanine scan
Sequence (P20138 18-364 K126A limits assumed): as the sequence (P20138 18-364 S124A limits assumed) above, with A107S, K109A counted along it
Experimental: as §1, §2

Row | Binder | Mean % WT Binding [% WT binding]
103 | B1 | 100
104 | B2 | 566
105 | B3 | 121

target: human CD33 N20V (human, UniProt P20138 18-364); assay: flow cytometry, mutant on cells, IgG
Sequence (P20138 18-364 N20V limits assumed): as the sequence (P20138 18-364 S124A limits assumed) above, with N3V, A107S counted along it
Experimental: as §1
Antibodies were screened for binding to the human CD33 variants in IgG format. […] For each mutation, background fluorescence was subtracted from the raw data, which were then normalized to antibody reactivity with wild-type CD33.

Row | Binder | Mean % WT Binding [% WT binding]
106 | B4 | 4.2
107 | B5 | 0.5
108 | B6 | 116
109 | B7 | 118
